B1: Lysyl oxidase homolog 2 (Homo sapiens), Q9Y4K0 (parent)
chain: MERPLCSHLCSCLAMLALLSPLSLAQYDSWPHYPEYFQQPAPEYHQPQAPANVAKIQLRLAGQKRKHSEGRVEVYYDGQWGTVCDDDFSIHAAHVVCRELGYVEAKSWTASSSYGKGEGPIWLDNLHCTGNEATLAACTSNGWGVTDCKHTEDVGVVCSDKRIPGFKFDNSLINQIENLNIQVEDIRIRAILSTYRKRTPVMEGYVEVKEGKTWKQICDKHWTAKNSRVVCGMFGFPGERTYNTKVYKMFASRRKQRYWPFSMDCTGTEAHISSCKLGPQVSLDPMKNVTCENGLPAVVSCVPGQVFSPDGPSRFRKAYKPEQPLVRLRGGAYIGEGRVEVLKNGEWGTVCDDKWDLVSASVVCRELGFGSAKEAVTGSRLGQGIGPIHLNEIQCTGNEKSIIDCKFNAESQGCNHEEDAGVRCNTPAMGLQKKLRLNGGRNPYEGRVEVLVERNGSLVWGMVCGQNWGIVEAMVVCRQLGLGFASNAFQETWYWHGDVNSNKVVMSGVKCSGTELSLAHCRHDGEDVACPQGGVQYGAGVACSETAPDLVLNAEMVQQTTYLEDRPMFMLQCAMEENCLSASAAQTDPTTGYRRLLRFSSQIHNNGQSDFRPKNGRHAWIWHDCHRHYHSMEVFTHYDLLNLNGTKVAEGHKASFCLEDTECEGDIQKNYECANFGDQGITMGCWDMYRHDIDCQWVDITDVPPGDYLFQVVINPNFEVAESDYSNNIMKCRSRYDGHRIWMYNCHIGGSFSEETEKKFEHFSGLLNNQLSPQ

Variants of: B1
Settings: with can2_human CAPN2, P17655
Sequence of can2_human CAPN2, P17655 (P17655 whole entry): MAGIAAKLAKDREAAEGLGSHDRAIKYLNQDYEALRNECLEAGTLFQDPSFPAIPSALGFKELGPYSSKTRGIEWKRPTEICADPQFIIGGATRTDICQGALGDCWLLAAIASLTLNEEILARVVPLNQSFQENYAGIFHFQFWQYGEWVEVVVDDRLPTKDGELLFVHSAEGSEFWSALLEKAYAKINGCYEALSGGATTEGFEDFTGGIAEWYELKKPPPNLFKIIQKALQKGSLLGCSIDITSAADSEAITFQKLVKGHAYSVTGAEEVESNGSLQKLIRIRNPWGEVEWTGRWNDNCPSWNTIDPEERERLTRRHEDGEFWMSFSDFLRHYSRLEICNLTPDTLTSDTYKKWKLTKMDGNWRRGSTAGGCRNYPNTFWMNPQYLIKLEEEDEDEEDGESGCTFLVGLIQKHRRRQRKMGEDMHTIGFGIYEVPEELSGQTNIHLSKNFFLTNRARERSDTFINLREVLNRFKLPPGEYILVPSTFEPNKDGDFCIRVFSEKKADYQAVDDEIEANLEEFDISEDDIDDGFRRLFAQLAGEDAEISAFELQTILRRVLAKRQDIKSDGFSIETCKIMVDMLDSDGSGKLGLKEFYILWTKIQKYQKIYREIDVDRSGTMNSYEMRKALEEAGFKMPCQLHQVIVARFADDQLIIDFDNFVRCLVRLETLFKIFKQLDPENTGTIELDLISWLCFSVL

effect of a mutation on the interaction	Variant
with no effect	N288Q;N455Q;N644Q
with no effect	H626Q;H628Q;Y689F

Variants of: B1
Settings: with vime_human VIM

effect of a mutation on the interaction	Variant
with no effect	H626Q;H628Q;Y689F

— IntAct's records for PubMed 31911079
